Source: article PMC4407904, “Increased Expression of the Large Conductance, Calcium-Activated K^+ (BK) Channel in Adult-Onset Neuronal Ceroid Lipofuscinosis” (PLoS ONE, 2015)

Biological target: the molecule itself
Experiment: SDS-PAGE and immunoblot of detergent-resistant oligomers; soluble CAD cell lysates (1% Triton X-100, 0.1% SDS lysis buffer) 24-72 h after transient transfection; blots with anti-myc, anti-flag or anti-CSPα

B1: myc-tagged wild type cysteine string protein (CSPα) (natural protein, UniProt P60905 1-198, looked up)
chain: MADQRQRSLSTSGESLYHVLGLDKNATSDDIKKSYRKLALKYHPDKNPDNPEAADKFKEINNAHAILTDATKRNIYDKYGSLGLYVAEQFGEENVNTYFVLSSWWAKALFVVCGLLTCCYCCCCLCCCFNCCCGKCKPKAPEGEETEFYVSPEDLEAQLQSDEREATDTPIVIQPASATETTQLTADSHPSYHTDGFN
notes: Cysteine string protein alpha (CSPα, DnaJC5), wild type; Seen on blots as an unpalmitoylated 26 kDa species, a palmitoylated 35 kDa monomer and a 70 kDa dimer; rat cDNA is surmised; also called WTCSPα; myc-CSPα; source: CAD cells, transiently transfected, in lysate
stoichiometry N: 2
